Reference: US20250026833A1 (WUXI BIOLOGICS IRELAND, published 2025)

Molecular target: T1, hPD-L1-ECD.mFc, W315-hPro1.ECD.mFc (in house) (human, UniProt Q9NZQ7 19-238)
T1 construct: extracellular domain; also called Human PD-L1, mFc tag; not shown: C-terminal mouse Fc
Assay: dual binding (bridging) ELISA: plate coated with hVEGF.his, titrated antibody, then hPD-L1-ECD.mFc at 1 ug/ml, HRP goat anti-mouse IgG

T1 sequence (Q9NZQ7 19-238): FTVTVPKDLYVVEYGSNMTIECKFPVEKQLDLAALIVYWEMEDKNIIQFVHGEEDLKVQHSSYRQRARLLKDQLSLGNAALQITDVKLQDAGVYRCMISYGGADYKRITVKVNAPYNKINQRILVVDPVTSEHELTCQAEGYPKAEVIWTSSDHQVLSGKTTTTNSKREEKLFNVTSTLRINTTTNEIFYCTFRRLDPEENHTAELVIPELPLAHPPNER

binding result: no binding (tested: 100 nM)
B1: Avastin (bevacizumab) (antibody, human IgG1, V domains shown)
VH: EVQLVESGGGLVQPGGSLRLSCAASGYTFTNYGMNWVRQAPGKGLEWVGWINTYTGEPTYAADFKRRFTFSLDTSKSTAYLQMNSLRAEDTAVYYCAKYPHYYGSSHWYFDVWGQGTLVTVSS
VL: DIQMTQSPSSLSASVGDRVTITCSASQDISNYLNWYQQKPGKAPKVLIYFTSSLHSGVPSRFSGSGSGTDFTLTISSLQPEDFATYYCQQYSTVPWTFGQGTKVEIK
notes: also called parental anti-VEGF antibody
